According to US10053696B2, “MiRNA-489 in treatment of breast cancer” (University of South Carolina, priority 2016, dated 2018):

Assays:
[1] = tested on: HER2, AKT and MAPK phosphorylation in MCF7 vect and MCF7 HER2 cells; assay: Western blot of HER2 signaling after lapatinib treatment; format: cell-based; conditions: 2 μM lapatinib, 48 h, Western blot (FIG. 3)
Description: (§1) Quantitative real-time RT-PCR analysis, Immunohistochemistry staining (IHC), Western Blot analysis, Fluorescence-Activated Cell Sorting (FACS) assay, Luciferase assay and Xenograft experiments were performed using standard protocol.
(§2) To identify specific miRNAs that may be involved in promotion of breast cancer progression, expression profiles of several (˜200) miRNA were screened and compared for HER2 over-expressing and control MCF7 cells using quantitative RT-PCR (qRT-PCR) analysis.

[2] = tested on: miR-489, miR-125b and miR-99a expression in MCF7 HER2 cells; assay: qRT-PCR of HER2-regulated miRNAs after lapatinib treatment; format: cell-based; conditions: lapatinib treated MCF7 HER2 cells, qRT-PCR (FIG. 4)
Description: All data are representative of three independent experiments.
as §1, §2

[3] = tested on: SHP2; assay: SHP2 expression in breast cancer cell lines after miR-489 overexpression; format: cell-based; conditions: mRNA and protein levels
[4] = tested on: 3′UTR of HER2; assay: Dual luciferase assay with HER2 3′UTR reporter constructs; format: cell-based, human; conditions: MCF7 HER2 cells, co-transfected 48 h, normalized with renilla (FIG. 16)
Description: FIG. 16 presents a schematic representation of the HER2 mRNA (wild type (wt) and mutant (mut)) with putative miR-489 binding site in the 3′ UTR, where the seed region is highlighted. MCF7 HER2 cells were co-transfected with either of miR-489 expressing vector or empty vector and renilla expressing vector for 48 h. Firefly luciferase was measured for each condition and normalized with renilla luciferase. Normalized luciferase activity was compared with WT-3′UTR and Mutant 3′ UTR of HER2 (graph).
A 650 bp long 3′ UTR of human HER2 was amplified from genomic DNA and cloned into the pGL3-promoter vector at the same Xba I and BamH I sites. For the mutation analysis putative miR-489 target site within 3′UTR of HER2 was mutated by Phusion site directed mutagenesis kit (Thermofisher Cat# F-541). All sequences were verified by direct sequencing of the plasmids.
as §1
To examine the similar effect of mimic-489 treatment on the expression of HER2, other breast cancer cell lines, AU-565, BT-474, HCC-1954 and ZR-75-1 cells were treated with mimic-489 for 72 hours to isolate total protein and RNA. […]

Row | Molecule | HER2, AKT and MAPK phosphorylation [1] | expression of miR-489, miR-125b and miR-99a after inhibition of HER2 phosphorylation [2] | SHP2 expression [3] | luciferase activity of mutant HER2 3′UTR [4] | luciferase activity of wt HER2 3′UTR [4]
1 | CS(=O)(=O)CCNCc1ccc(-c2ccc3ncnc(Nc4ccc(OCc5cccc(F)c5)c(Cl)c4)c3c2)o1 [lapatinib] | almost complete blockade | at least partially restored the expression profile | – | – | –
2 | miR-489: microRNA-489 (SEQ ID NO: 2); overexpressed in cells, e.g. from miR-489 expressing vector in the luciferase assay (nucleic acid, listed as Homo sapiens) GUGGCAGCUUGGUGGUCGUAUGUGUGACGCCAUUUACUUGAACCUUUAGGAGUGACAUCACAUAUACGGCAGCUAAACUGCUAC | – | – | reduced SHP2 expression | not the mutant HER2 3′UTR is significantly reduced | significantly reduced
